Target: the different types of antibodies (different animal originated antibodies of Example 2)
Test: SPR (Biacore 3000), hybrid on CM-5 chip, antibody in solution

SPR reaction value: < 200 RU
Binder: RTYRTYRTYRTYKKKG (C-terminal NH(CH2CH2O)nCH2CH2CO-Cys-NH2 (PEG linker and cysteine amide))

From US20100209945A1
